Data on 18 sequences can be found in a protein production outcome set (Wang et al. 2014).

This data set in a line: label from the status in PepcDB records.
Consider “MLETLMYGAISALVFGTVLPLLYRSKNIRKASSGLSLLSSILLLGFAGIILYTRTEPVFPVTGFLPGAGFTLSADRLAAGFILLIGAVVPGVSIYSVEYVEHAKSEARKSLQASLTNLFILAMLMVILAGNMVSFLVFWEIMSLSSLLLVLHDYSSEENKKAGFFYFVMTNISTAFLFVGFISLFRLTGSADFGPLEYPAADLALPFIFLFIGFGVKAGLVPFHKWLPYAHPAAPSSVSALMSGVMLKVAVYGFLRFLLSVSAPELWWGVLILTAGSISALFGVIYALKENDIKRMLAYSSIENIGIIFTGIGLYAVFKVEGLESLALLSLVGACFHAFNHAVFKSLLFLCAGSVVHATGTRKIEAFGGLVKSMPVTSALFLIGSVSIAAMPPTNGFAGELLLYQAFFQSFAVTDPLLNIFLIIALSSFALTGALAAALFVKLFGITCLAIPRSEKSRLAEEVQKPMLVGPAVPAAFCILGGLFSKQLLSLAGWKIDFPDLLLLGILLGLIYTALFVIIRSKETGPARISETWGCGIPALAPYMEYSSAGFSEPLVMIFKSIYRTKIVNRPEYFDEKESLFKNGKVEIRLLRFFEEYLYIPPARAIDIFSKYVSKLQNGKLDSYVLYAFLAVIVLIIATGGFV”, for which the protein production entry was “failed”.

For the sequence “METVRPMVVAPKGNKLRRKFAKVLNIHKLTGVAPEGEMKKIKFDSKTAKLSESFYKLEEEYERSQGLEALLAKLFATVSSIKAAYAQLQHSQSPYDSIGIQKADNLVVAELKTLSELKQCFMKKQVDPNPERTLVLAEIQELRSLLKTYEIMGKKLESQYKLKDSEIIFLREKLDESMKQNKLTEKRLNQSGQLCNPLDNLHLSALNPTHFVTYLHHTVKSTRGFVKLMIEQMKLAGWDISSAANSIHPGVFYYKQDHKCFTFEHFVSNVMFEAFHLPYFSTSSESRSYKKKKQSNADREMFFERFKELRSMKAKDYLTARPKSRFARFCRAKYLQLIHPKMEQAFFGHLHLRNQVSAGEFPETSLFSGFLEMAKRIWLLHCLALSFEREAEIFRVPKGCRFSEVYMKSVAEEAFFPAAESSPESEPRVAFTVVPGFRIGKTSIQCEVYLSLS”, the protein production result is listed as “failed”.

Regarding “MTDTASKYAVKLKTNFEDPKWVNRHKFMFNFLDINGNGKITLDEIVSKASDDICAKLGATPAQTQRHQEAVEAFFKKIGLDYGKEVEFPAFVNGWKELAKHDLKLWSQNKKSLIRNWGEAVFDIFDKDGSGSISLDEWKTYGGISGICPSDEDAEKTFKHCDLDNSGKLDVDEMTRQHLGFWYTLDPNADGLYGNFVP”, the protein production entry is listed as “not failed”.

In the case of “AVDLNKENRDPKYVESIVNRSQKIVDKLGLTDAKVAEDVCNVIANRYFELNDIYEIRDAKVKAVKESGLTGDAKNEALKAAENEKDAALYRSHFAFPASLSLFLNEEQIEAVKDGMTYGVVKVTYEATLDMIPSLKEEEKVQIYAWLVEAREFAMDAENSNKKHAAFGKYKGRINNYLAKRGYNLTKEREEWAKRVKARGGTL”, the protein production entry is given as “not failed”.

For the sequence “MHQDVLLGGRYRLGAQLGGGSEAYVNEAWDLLSGKTVAVKIFRSTNSLDNAPFRRELEIHGRLRHRNIVRILDSGDTDSRGDGAGVGQDNRHFVVMELVAGKDLRWILQDKPASPEQTAAWMTDVARALAHVHRRGIVHNDIKPGNILVDFASDPGGPGVAKLADFGIALNGRHGVPNSSSGTPHYLSPEEVCGGTSTTASDIYSLGLVALECLTGTKAFPGPPLESMVARTLGEPRIPGTVRRRWSMVLHAMTDPDPAGRPSASQTVGMLRRLSW”, the protein production result is reported as “failed”.

As for “MEKKVHYKMYKAGKKWVFVMLSTVALTGIMVMSGNIAKADAVAQSSTEQVAKIDTTSATTTSTQATAQVEKATNNVNESNAAQTSATTTTEQSSVNAGATSSSQNNKQATTTSVAASQNTSVANKDQVSSTQSSTTQNSEEPKVETPVNTADNASQKNVNGNWYLVDNNTGKNLTGFQEIKYQNKVVYYAPSNAQMQYGWQDINNNRYYFDTFDGAMTTGQKNINGNWYMFDAQGVLQTGFQRIESQNKTVYYSEDKDKLGQMQYGQKNIKGNWYNFDTYDGAMKTGFVTIPSQNKTVYYSEDKAKLGQMQYGKTKVNGKTYYFDTYDGAMKKGLTNINGNYYYFDNSGVMATNQKNINGNWYMFNDQGIMQTGFVHIPSQGKTVYYSKDKDKLGQMLYGQKNINGRWYNFDTYDGAMKTGFVYIPSQNKTVYYDENQSTLGQMKYGFQNINGKTYYLDTFDGSMKTGQKNINGNWYMFDDKGVMKVGFVTIPSQNKTVYYSEDKAKLGQMQYGKTGIKGKTYYFDTFDGAMKTGVFYNKETGTLQYYGNNGQMNYGNVVINGKVYAFDAAGNYLGKGNVTIDGHDYYLGNNNQVLVGFQKISNNTYYYNKDNGQKEYGQKNIDGSWYMFDDKTGIMKTGFVTIPSQNKTVYYGNNGQMQYGQRNIDGHWYMFDTYNGAMKTGLVYIPEQNKTVYYGSNGQMQYGVFRVGKITYTADHISGAIIGVYNDAEVIGQNPELPTGCEITAVTMMLRYAGANINKIQLANEMPRSNNGDYGFVGNPFSVTGWWVFPTGVAPVVNKHLGHSQVMTGASLESIKNKLLNGHLVVAWVANMNGFVNHAIALTGYNGNTLYYNNPWTARKESMSVSSFYTHWNADKQRALSY”, the protein production result is listed as “failed”.

Take “MAVQENLLLGAKASKNATLTLVFLSILKGVVGFYSGSASLIADAIHTSLDIFTSLAVWIGLKLSMRGSEEKFPYGYYKADNLVSLFVSIIILFSGVELVREALLNIASPVEIKLQGIALGTAVFSVIAMYALSQYKFKVGKQIDSQALIADALHSYTDVFSSLIVAITIIGSLLGVLWLDSAGVLVISLMIFKLGIGMAKDSILTLMDAWLDKDSIERIRQNVGSIQGVKTVDEIRLRKSGLVVFGEIEIEIEGDASLKRVEMLFEEIEKTVKNEVKNLEHLVVNVKPEKISVMKIAVPVLMQEGLHSKVSRHFSKAPYFIFIELENNDIISWDVSENPAAGLEKKKGLKAAEFLKDQGVNVLIAGEIGEAPFHTLRDNFVKLLQMPEEIEDVEQVVKKVSELNTLTAPTE”: the protein production entry is “failed”.

Regarding “MVDTNHKIAFCIDSDGCAMDTMTYKHQLFFGPIAADIFGISEQERTSFLKEWDRVNLYSRTRGVNRFVGLVMGLEFAGVEHIDKLKEWVETTDSLSNNSLELALANDFSRDLEKALEWSNEVNRQIKNYEGDSLAFSGVLESLERLSQFGNVYVVSSANKEAVWQEWEEQGLLKYVDDIYCQDRGKKEDVIATLIASGYCRETILMVGDSLGDLAAAEQNGIAFYPVLVGKEVKSWEILREDIGEAFAKGQFEQQRQKESINTFWANLDN”, the protein production result is “failed”.

Consider “LAMPPGNSHGLEVGSLAEVKENPPFYGVIRWIGQPPGLNEVLAGLELEDECAGCTDGTFRGTRYFTCALKKALFVKLKSCRPDSRFASLQP”, for which the protein production entry is “not failed”.

Take “MAQAPDSSVPVRMVVDLTVDDYAAFTAYAYQRPALRRRRHASHLRFAVLLAAGLLAVILLRVWDGRQLDWGAALPAYAQALVVGLAVFALLAVGYEYALPRLARGNVRRALGRQPDNPFLGRHTLDFGPRGVDDAAAGASGTMPWEAVGQVEETASHLYLFISPLQGVIIPKRGQSADVLQAVRAQLRAHVPGAALADAADKQ”: the protein production result is “failed”.

For the sequence “MFKNKLAVLFTCLSVFSFSAQSGSFDTVTLGSKGGIQDGNLTAFLIKSEADSNFVMLDAGSVVNGLIVSEQKGAFKDITVPDSSPYTKVGYLLKDKIKGYFISHAHLDHVAGLIISSPDDSKKPIYGLAATNKDLMKNYFNWSAWPNFGNKGEGFKLNKYNYVDLQPGVWSPIAETTMSVMSLPLSHSGGQSTVFILKDSEGDVFAYFGDTGPDEVEKSSAMKTAWSALAPFVKQGKLKGIIIEVSFTNETPDKSLFGHLTPNWLVKELSVLEDMNGKGSLNDLNVAISHIKYSLKNSEDPKVIIKKQLAEANDLGVNFIFPEQGDSLQF”, the protein production entry is listed as “failed”.

As for “MILPWLILIPFIGGLLCWLGERFGATLPRWIALLTMTLELALGLWLWAHGNYSFAPAPGADPTWAIEFKHVWIERFGINVHLALDGLSLLMILLTGLLGILSVLCSWKEIQRHVGFFHLNLMWILGGVVGVFLALDLFMFFFFWEMMLVPMYFLIALWGHSSADGKKTRIYAATKFFIFTQASGLIMLVAILGLVLVNFNNTGVITFDYAQLLKTKMSTATEYILMLGFFIAFAVKLPVVPFHSWLPDAHAQAPTAGSVDLAGILLKTAAYGLLRFALPLFPNASAEFAPIAMTLGLIGIFYGAFLAFAQTDIKRLIAFSSVSHMGFVLIGIYSGSQQALQGAVIQMLAHGVSAAALFILSGQLYERTHTRDMREMGGLWSRIAYLPAISLFFAAASLGLPGTGNFVGEFLILIGTFVSAPWITAIATSGLVFGSVYSLIMIHRAYFGPSKSDAVLHGMDARELIMVLGLAVLLIYIGVYPQPFLDTSAATMHGVQQWLSTAFTQLASAR”, the protein production result is recorded as “failed”.

Consider “MLFSLKYLGMTLVEQPKGEELSAAAIKRIVATAKASGKKLQKVTLKVSPRGIILTDNLTNQLIENVSIYRISYCTADKMHDKVFAYIAQSQHNQSLECHAFLCTKRKMAQAVTLTVAQAFKVAFEFWQVSKEEKEKRDKASQEGGDVLGARQDCTPPLKSLVATGNLLDLEETAKAPLSTVSANTTNMDEVPRPQALSGSSVVWELDDGLDEAFSRLAQSRTNPQVLDTGLTAQDMHYAQCLSPVDWDKPDSSGTEQDDLFSF”, for which the protein production result is given as “failed”.

Take “MGPAVKKASKGILSDVLKCLTNNIKHMREFTLAVVDKMVAGLSDFVDATHLLKPASNRSD”: the protein production entry is given as “failed”.

For “SELSQLLNEIRANYEKILTRNQIETVLSTRIQLEEDISKKMDKDEEALKAAQAELKEARRQWHHLQVEIESLHAVERGLENSLHASEQHYQMQLQDLETVIEGLEKELQEVRRGIEKQLQEHEMLLNTKMRLEQEIATYRHLLEKEEIRYYGCIQGGKKDKKPTTSRVGFVLPSAIINEISFTTKVPQKYENENVETVTKQAILNGSIVKESTEAHGTIQTEKVDEVIKEWEGSFFKDNPRLRKKSVSLRFDLHLAATDEGCLETKQDNLPDIEVRLIMRRSCSIPSIKPPSTAN”, the protein production entry is “not failed”.

For “MARLSLVPGRGGLVTEWTVQGQPILYFDRERFQDPSLSVRGGIPILFPICGNLPQDQFNHAGKSYRLKQHGFARDLPWEVIGQQTQDNARLDLRLSHNDATLEAFPFAFELVFSYQLQGHSLRIEQRIANLGDQRMPFSLGFHPYFFCREKLGITLAIPANDYLDQKTGDCHGYDGQLNLTSPELDLAFTQISQPRAHFIDPDRNLKIEVSFSELYQTLVLWTVAGKDYLCLEPLEHHHHHH”, the protein production entry is “failed”.

With “MLEGAKFNVLAVGNHHNNDNNYYAFTQEFYQKLNEGSNMSMESMQTSNAGGSVSMSVDNSSVGSSDALIGHPGLKPVRHYSLSVGQSVFRPGRVTHALNDDALAQALMDTRYPTEGLTNYDEWTIDLRKLNMGPAFAQGAFGKLYKGTYNGEDVAIKILERPENSPEKAQFMEQQFQQEVSMLANLKHPNIVRFIGACRKPMVWCIVTEYAKGGSVRQFLTRRQNRAVPLKLAVKQALDVARGMAYVHGRNFIHRDLKSDNLLISADKSIKIADFGVARIEVQTEGMTPETGTYRWMAPEMIQHRAYNQKVDVYSFGIVLWELITGLLPFQNMTAVQAAFAVVNRGVRPTVPNDCLPVLSDIMTRCWDANPEVRPCFVEVVKLLEAAETEIMTTARKARFRCCLSQPMTID”, the protein production result is on record as “failed”.

As to “MNRSNQDITQPTAIIAVVGVGAEQGIGAAVCRRFAQEKFKVYVAGRTLNKVEKVAAAIHRQGGQAVAYVLDAENEQQLQTLFDHLNDQPEALAAVIHNVGGNIPSIFLQSSLKFFSQMWRSTFLSSVLVAQRSLSIFQKQQQGTLIFTGASASLRGKPFFAAFSMGKSALRSYALNLAELYRSQNIHVAHVMVDGMVDGDRVNKALWGLGRLARLTRGTGGLNIDAIAENYWMLYQQNVDLWTHELDLRPYQEKF”, the protein production entry is on record as “failed”.
